Measurements: US20230257726A1 (published 2023)

Biological target: Wild-type ACE2(740)-Fc (human)
Experiment: BLI, ACE2-Fc on tips, RBD in solution

Sequence of Wild-type ACE2(740)-Fc (human) (chain, as listed by the source): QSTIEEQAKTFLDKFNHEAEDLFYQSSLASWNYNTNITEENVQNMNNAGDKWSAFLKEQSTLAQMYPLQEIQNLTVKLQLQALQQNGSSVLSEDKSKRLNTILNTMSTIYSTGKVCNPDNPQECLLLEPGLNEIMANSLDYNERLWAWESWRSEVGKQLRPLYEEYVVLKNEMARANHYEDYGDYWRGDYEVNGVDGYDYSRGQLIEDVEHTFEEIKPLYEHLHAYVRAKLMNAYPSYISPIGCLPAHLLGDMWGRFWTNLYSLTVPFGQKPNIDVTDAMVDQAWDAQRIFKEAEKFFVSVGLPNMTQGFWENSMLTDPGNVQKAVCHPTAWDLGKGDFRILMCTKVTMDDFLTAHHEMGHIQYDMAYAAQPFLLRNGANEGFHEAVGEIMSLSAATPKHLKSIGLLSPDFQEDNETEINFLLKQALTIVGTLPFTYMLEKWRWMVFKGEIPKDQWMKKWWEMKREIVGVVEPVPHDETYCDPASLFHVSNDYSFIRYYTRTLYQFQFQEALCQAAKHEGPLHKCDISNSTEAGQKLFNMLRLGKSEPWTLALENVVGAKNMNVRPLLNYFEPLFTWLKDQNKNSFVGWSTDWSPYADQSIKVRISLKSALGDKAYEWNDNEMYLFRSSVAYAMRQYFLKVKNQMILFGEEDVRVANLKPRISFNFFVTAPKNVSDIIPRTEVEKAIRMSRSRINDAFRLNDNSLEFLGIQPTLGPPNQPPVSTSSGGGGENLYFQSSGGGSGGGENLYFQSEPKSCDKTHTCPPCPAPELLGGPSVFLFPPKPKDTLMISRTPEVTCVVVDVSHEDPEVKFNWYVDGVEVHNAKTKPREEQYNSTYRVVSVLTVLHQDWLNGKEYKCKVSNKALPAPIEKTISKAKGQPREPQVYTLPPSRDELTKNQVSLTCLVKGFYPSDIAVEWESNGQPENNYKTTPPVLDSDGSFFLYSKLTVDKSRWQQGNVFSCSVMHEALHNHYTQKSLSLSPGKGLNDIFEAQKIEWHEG

B1: Human coronavirus NL63 (HCoV-NL63) spike RBD (ligand)
chain: QHTDINFTATASFGGSCYVCKPHQVNISLNGNTSVCVRTSHFSIRYIYNRVKSGSPGDSSWHIYLKSGTCPFSFSKLNNFQKFKTICFSTVEVPGSCNFPLEATWHYTSYTIVGALYVTWSEGNSITGVPYPVSGI
B1 gave a Kd of 22 nM.
